Results as given in publication PMC7933433.

Assays:
[1] = target: PGR5a fused to the N-terminal part of YFP (PGR5a-YFP^n) (cucumber (Cucumis sativus L.)); test: split reporter (BiFC, NanoBiT); halves of YFP, transient expression in N. benthamiana leaves, confocal microscopy on the third day; also after 30 min in the dark (state 1) or red light (state 2)
[2] = target: cyt b6f complex of cucumber thylakoid membranes (cucumber (endogenous in cucumber thylakoids)); test: native gel or EMSA; blue native PAGE of thylakoid membranes (cucumber or tobacco) dissolved in an equal volume of 2% DM, 4 °C, followed by immunoblotting with anti-PGR5; leaf discs also arrested in state 1 or state 2, dark or red light, or incubated with Put

| YFP fluorescence intensity (BiFC), stronger in state 2 than in state 1 [1] [%] | Substance | further results |
| --- | --- | --- |
| 64 | Lhcb3 fused to the C-terminal part of YFP (Lhcb3-YFP^c) (natural protein) |  |
|  | PetC fused to the C-terminal part of YFP (PetC-YFP^c) (natural protein) | YFP fluorescence intensity (BiFC), stronger in state 1 than in state 2 [1]: 64% |
|  | native PGR5 protein of cucumber thylakoid membranes (natural protein) | PGR5 abundance in the cyt b6f complex, higher in state 1 than in state 2 [2]: 40% |
| 67 | PsaH fused to the C-terminal part of YFP (PsaH-YFP^c) (natural protein) |  |
